Test results taken from article PMC10186271, “The ABA-induced NAC transcription factor MdNAC1 interacts with a bZIP-type transcription factor to promote anthocyanin synthesis in red-fleshed apples”.

T1: MdNAC1 (Malus domestica, UniProt D9ZJ87 1-280)
T1 sequence: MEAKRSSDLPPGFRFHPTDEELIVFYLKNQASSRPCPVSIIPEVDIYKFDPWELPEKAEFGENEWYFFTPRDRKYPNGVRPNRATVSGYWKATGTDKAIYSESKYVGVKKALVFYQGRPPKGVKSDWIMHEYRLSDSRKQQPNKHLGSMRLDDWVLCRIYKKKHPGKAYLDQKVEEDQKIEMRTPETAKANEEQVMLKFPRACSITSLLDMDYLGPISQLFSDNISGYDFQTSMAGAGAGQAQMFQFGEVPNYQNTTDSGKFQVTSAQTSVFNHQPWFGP


Tests used:
MdNAC1 [1] = target: T1, MdNAC1; test: EMSA; unlabeled competitor decreased binding; Thermo Scientific Pierce EMSA kit protocol; buffer, salt, pH and temperature not stated; cold probe 100x; settings: protein: recombinant; tags: His (pET32a); chain copies: 2; label: 3' biotin; blunt
MdNAC1 [2] = target: T1, MdNAC1; test: EMSA; Thermo Scientific Pierce EMSA kit protocol; buffer, salt, pH and temperature not stated; cold probe 100x; settings: protein: recombinant; tags: His (pET32a); chain copies: 2; label: 3' biotin; blunt

| Binder | binding result (MdNAC1 [1]) | binding result (MdNAC1 [2]) |
| --- | --- | --- |
| MYB10 hot probe (dsDNA) DNA 1: TTTAATAAAAAGGACCCTGAACACGTGGGAACCGGCCCGTTTGTAA DNA 2: TTACAAACGGGCCGGTTCCCACGTGTTCAGGGTCCTTTTTATTAAA | binds | – |
| MYB10 mutant probe (dsDNA) DNA 1: TTTAATAAAAAGGACCCTGAATTAATGGGAACCGGCCCGTTTGTAA DNA 2: TTACAAACGGGCCGGTTCCCATTAATTCAGGGTCCTTTTTATTAAA | – | no binding |
| UFGT hot probe (box 1) (dsDNA) DNA 1: GTGATTGGCTTCTGATGTTGACACGTGTCGCGCTGTGGTTGGCTTC DNA 2: GAAGCCAACCACAGCGCGACACGTGTCAACATCAGAAGCCAATCAC | binds | – |
| UFGT mutant probe (box 1) (dsDNA) DNA 1: GTGATTGGCTTCTGATGTTGACCTCTGTCGCGCTGTGGTTGGCTTC DNA 2: GAAGCCAACCACAGCGCGACAGAGGTCAACATCAGAAGCCAATCAC | – | no binding |
